According to US20260001934A1:
Values belong to the substance of their own block, whether it stands above or below them.

Key:
α208.GS.BBz [1] = experiment: flow cytometry, mAb 210 plus secondary IgG-APC on lentivirally transduced primary human T cells, day 5; the same gate on NTD cells reads 0.20; the filing says this CAAR is not surface-expressed, so the low value shows absent target and not lack of affinity
α211.GS.BBz CAAR [2] = experiment: flow cytometry, mAb 210 plus anti-rat IgG-APC on transiently transfected 293T cells, day 2; non-transfected 293T reads 0%
α210.GS.BBz CAAR [3] = experiment: as above
α208.GS.BBz [4] = experiment: flow cytometry, mAb 210 plus anti-rat IgG-APC on transiently transfected 293T cells, day 2; non-transfected 293T reads 0%; the filing says this CAAR is not expressed on the cell surface, so the low value shows absent target and not lack of affinity
α39P AChR.CD8H.BBz CAAR [5] = experiment: flow cytometry, mAb 210 staining of lentivirally transduced Jurkat cells, day 3; the same gate on NTD cells reads 0.43
Chain of α39P AChR.CD8H.BBz CAAR (chain, as listed by the source): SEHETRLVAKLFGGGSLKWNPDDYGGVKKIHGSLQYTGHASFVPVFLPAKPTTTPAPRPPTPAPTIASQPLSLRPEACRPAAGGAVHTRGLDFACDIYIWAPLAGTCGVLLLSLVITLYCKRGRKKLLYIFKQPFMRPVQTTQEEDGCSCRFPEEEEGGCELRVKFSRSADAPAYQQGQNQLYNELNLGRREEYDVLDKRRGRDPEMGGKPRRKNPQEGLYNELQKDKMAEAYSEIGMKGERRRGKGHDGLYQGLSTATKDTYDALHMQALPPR

α65P AChR.CD8H.BBz CAAR [6] = experiment: as above
α39P AChR.CD8H.BBz CAAR [7] = experiment: flow cytometry, mAb 210 staining of lentivirally transduced primary human CD3+ T cells, day 5; the same gate on NTD cells reads 0.32
α65P AChR.CD8H.BBz CAAR [8] = experiment: as above
α211.GS.BBz CAAR [9] = experiment: flow cytometry, mAb 210 plus secondary IgG-APC on lentivirally transduced primary human T cells, day 5; the same gate on NTD cells reads 0.20
α210.GS.BBz CAAR [10] = experiment: as above
α39P AChR.CD8H.BBz CAAR [11] = target: α39P AChR.CD8H.BBz CAAR
α211.GS.BBz CAAR [12] = target: α211.GS.BBz CAAR
α210.GS.BBz CAAR [13] = target: α210.GS.BBz CAAR
α208.GS.BBz [14] = target: α208.GS.BBz
α65P AChR.CD8H.BBz CAAR [15] = target: α65P AChR.CD8H.BBz CAAR
α65P AChR.CD8H.BBz CAAR [16] = target: α65P AChR.CD8H.BBz CAAR; remark: listed apart in the source
α211.GS.BBz CAAR [17] = target: α211.GS.BBz CAAR; remark: listed apart in the source
α210.GS.BBz CAAR [18] = target: α210.GS.BBz CAAR; remark: listed apart in the source
α39P AChR.CD8H.BBz CAAR [19] = target: α39P AChR.CD8H.BBz CAAR; remark: listed apart in the source

% of cells in the mAb 210-positive gate (% (unit not given; gate frequency)) (α208.GS.BBz [1]): 1.14 | % AChR CAAR surface-positive 293T cells (α211.GS.BBz CAAR [2]): 17.1% | % AChR CAAR surface-positive 293T cells (α210.GS.BBz CAAR [3]): 26.3% | % AChR CAAR surface-positive 293T cells (α208.GS.BBz [4]): 3.91% | % of cells in the mAb 210-positive gate (% (unit not given; gate frequency)) (α39P AChR.CD8H.BBz CAAR [5]): 68.5 | % of cells in the mAb 210-positive gate (% (unit not given; gate frequency)) (α65P AChR.CD8H.BBz CAAR [6]): 68.8 | % of cells in the mAb 210-positive gate (% (unit not given; gate frequency)) (α39P AChR.CD8H.BBz CAAR [7]): 53.4 | % of cells in the mAb 210-positive gate (% (unit not given; gate frequency)) (α65P AChR.CD8H.BBz CAAR [8]): 13.1 | % of cells in the mAb 210-positive gate (% (unit not given; gate frequency)) (α211.GS.BBz CAAR [9]): 63.6 | % of cells in the mAb 210-positive gate (% (unit not given; gate frequency)) (α210.GS.BBz CAAR [10]): 41.3
Substance: anti-AChR alpha subunit monoclonal antibody 210

% GFP+ CAAR Jurkat NFAT-GFP cells after 12 h co-culture with TIB-175 (NTD Jurkat in the same figure: 4.1) (% (unit not given; gate frequency)) (α39P AChR.CD8H.BBz CAAR [11]): 53.7 | % GFP+ AChR CAAR Jurkat reporter cells (CD3+ gate) after 12 h co-culture with TIB-175 (α211.GS.BBz CAAR [12]): 55.7% | % GFP+ AChR CAAR Jurkat reporter cells (CD3+ gate) after 12 h co-culture with TIB-175 (α210.GS.BBz CAAR [13]): 53% | % GFP+ Jurkat reporter cells (CD3+ gate) after 12 h co-culture with TIB-175; the construct is a negative control that is not on the cell surface (α208.GS.BBz [14]): 2.88% | % GFP+ CAAR Jurkat NFAT-GFP cells after 12 h co-culture with TIB-175 (NTD Jurkat in the same figure: 0.81) (% (unit not given; gate frequency)) (α65P AChR.CD8H.BBz CAAR [15]): 69
Substance: mAb 35 surface anti-AChR B cell receptor on TIB-175 hybridoma cells (antibody)

% GFP+ among CD3+-gated α65P CAAR Jurkat NFAT-GFP cells after 12 h co-culture, lower histogram (% (unit not given; gate frequency)) (α65P AChR.CD8H.BBz CAAR [16]): 41.4 | % of all co-cultured cells in the CD3+ GFP+ quadrant, upper dot plot, upper right (% (unit not given; quadrant frequency)) (α65P AChR.CD8H.BBz CAAR [16]): 5.96 | % GFP+ AChR CAAR Jurkat NFAT-GFP cells (CD3+ gate) after 12 h co-culture (α211.GS.BBz CAAR [17]): 91.4% | % GFP+ AChR CAAR Jurkat NFAT-GFP cells (CD3+ gate) after 12 h co-culture (α210.GS.BBz CAAR [18]): 89.5% | % GFP+ among CD3+-gated α39P CAAR Jurkat NFAT-GFP cells after 12 h co-culture, lower histogram (Nalm6 control: 4.1) (% (unit not given; gate frequency)) (α39P AChR.CD8H.BBz CAAR [19]): 6.23 | % of all co-cultured cells in the CD3+ GFP+ quadrant, upper dot plot, upper right (Nalm6 control: 1.52) (% (unit not given; quadrant frequency)) (α39P AChR.CD8H.BBz CAAR [19]): 5.44
Substance: mAb 192 anti-AChR B cell receptor expressed on Nalm6 cells (antibody)

% GFP+ among CD3+-gated α65P CAAR Jurkat NFAT-GFP cells after 12 h co-culture, lower histogram (% (unit not given; gate frequency)) (α65P AChR.CD8H.BBz CAAR [16]): 70.5 | % of all co-cultured cells in the CD3+ GFP+ quadrant, upper dot plot, upper right (% (unit not given; quadrant frequency)) (α65P AChR.CD8H.BBz CAAR [16]): 6.95 | % GFP+ AChR CAAR Jurkat NFAT-GFP cells (CD3+ gate) after 12 h co-culture (α211.GS.BBz CAAR [17]): 94.6% | % GFP+ AChR CAAR Jurkat NFAT-GFP cells (CD3+ gate) after 12 h co-culture (α210.GS.BBz CAAR [18]): 91.7% | % GFP+ among CD3+-gated α39P CAAR Jurkat NFAT-GFP cells after 12 h co-culture, lower histogram (Nalm6 control: 4.1) (% (unit not given; gate frequency)) (α39P AChR.CD8H.BBz CAAR [19]): 68.6 | % of all co-cultured cells in the CD3+ GFP+ quadrant, upper dot plot, upper right (Nalm6 control: 1.52) (% (unit not given; quadrant frequency)) (α39P AChR.CD8H.BBz CAAR [19]): 17.8
Substance: mAb 195 anti-AChR B cell receptor expressed on Nalm6 cells (antibody)
